The target in test [1] is kappa opioid receptor, P41145. Nature of the test: PDSP receptor binding; log of Ki in M.
For test [2], the target named is mu opioid receptor (UniProt P35372). The experiment in a line: PDSP receptor binding.
Test [3] has the same target. Nature of the test: PDSP receptor binding; against the glycosylated Trp analogs.
Test [4] addresses kappa opioid receptor (UniProt P41145). Nature of the test: PDSP receptor binding, selectivity against MOR; from the 10,000 nM ceiling.
Test [5] has as its target delta opioid receptor (UniProt P41143). The test is described as above.
For test [6], the target named is mu opioid receptor (UniProt P35372). Nature of the test: PDSP receptor binding; log of Ki in M.
Test [7] deals with kappa opioid receptor (UniProt P41145). Nature of the test: PDSP receptor binding; binding eliminated by the text.
The target of test [8] is delta opioid receptor (UniProt P41143). Described as above.

Bridges are numbered along the chain shown (N, C = ends). Where no end group is shown, it is not given here. [ ]: non-standard residue; d: D form. Glc = glycosylated with D-glucose; Lact = not defined here Some results are limits rather than exact numbers.

One may read the Ki as a measure of affinity in units of concentration, obtained from inhibition or displacement.

B1: Analog A8: Tyr-c[D-Lys-Trp-Phe-Glu]-Ser-NH2 (peptide)
peptide: Y[dK]WFES-NH2
modifications: lactam 2-5
As to B1, the Log Ki in test [1] was -5.98.

B2: Analog A4 (D-Nal at position 3, C-terminus Ser(Glc)CONH2) (peptide)
peptide: YK[dNal]FES(Glc)-NH2
modifications: not fully specified
In the case of B2, the Ki with mu opioid receptor [2] was 0.0635 µM; in the test with kappa opioid receptor [7], more than 10 µM; with delta opioid receptor [8], more than 10 µM. The further fold reduction of MOR binding by D-Nal at position 3 with mu opioid receptor [3] amounted to 11 fold. The kap/mu (ratio of Ki at KOR to Ki at MOR) with kappa opioid receptor [4] is more than 157. The del/mu (ratio of Ki at DOR to Ki at MOR) with delta opioid receptor [5] is more than 157. Besides, the Log Ki with mu opioid receptor [6] is -7.2.

B3: Analog A5 (D-Nal at position 3, C-terminus Ser(Lact)CONH2) (peptide)
peptide: YK[dNal]FES(Lact)-NH2
modifications: not fully specified; reading uncertain
With B3, the inhibition constant Ki is 0.0553 µM with mu opioid receptor [2], more than 10 µM with kappa opioid receptor [7] and more than 10 µM with delta opioid receptor [8]. For the same molecule, in the test with mu opioid receptor [3], the further fold reduction of MOR binding by D-Nal at position 3 turned out to be 11 fold. The kap/mu (ratio of Ki at KOR to Ki at MOR) with kappa opioid receptor [4] is more than 181. Further, the del/mu (ratio of Ki at DOR to Ki at MOR) with delta opioid receptor [5] is more than 181. Further, in the test with mu opioid receptor [6], the Log Ki was -7.26.

The values are drawn from US20250296958A1, “GL[…] E[…]” (THE ADMINISTRATORS OF THE TULANE EDUCATIONAL FUND, priority 2022, published 2025).
